Measured values taken from publication PMC10218236.
Several values for one entry are separate records, joined by “and”; a condition that tells them apart may be missing. Equal entries are not always repeated.

Target: L1CAM on L1CAM-high cells (LoVo) (Homo sapiens?) (UniProt P32004)
Experiment: flow cytometry
Conditions: PBS, 4.5 g/L glucose, 5 mM MgCl2, 1 mg/mL BSA, 0.1 mg/mL herring sperm DNA, 30 min at 4 °C (or 25/37 °C), pH not stated

Sequence of L1CAM on L1CAM-high cells (LoVo) (Homo sapiens?) (P32004 20-1257): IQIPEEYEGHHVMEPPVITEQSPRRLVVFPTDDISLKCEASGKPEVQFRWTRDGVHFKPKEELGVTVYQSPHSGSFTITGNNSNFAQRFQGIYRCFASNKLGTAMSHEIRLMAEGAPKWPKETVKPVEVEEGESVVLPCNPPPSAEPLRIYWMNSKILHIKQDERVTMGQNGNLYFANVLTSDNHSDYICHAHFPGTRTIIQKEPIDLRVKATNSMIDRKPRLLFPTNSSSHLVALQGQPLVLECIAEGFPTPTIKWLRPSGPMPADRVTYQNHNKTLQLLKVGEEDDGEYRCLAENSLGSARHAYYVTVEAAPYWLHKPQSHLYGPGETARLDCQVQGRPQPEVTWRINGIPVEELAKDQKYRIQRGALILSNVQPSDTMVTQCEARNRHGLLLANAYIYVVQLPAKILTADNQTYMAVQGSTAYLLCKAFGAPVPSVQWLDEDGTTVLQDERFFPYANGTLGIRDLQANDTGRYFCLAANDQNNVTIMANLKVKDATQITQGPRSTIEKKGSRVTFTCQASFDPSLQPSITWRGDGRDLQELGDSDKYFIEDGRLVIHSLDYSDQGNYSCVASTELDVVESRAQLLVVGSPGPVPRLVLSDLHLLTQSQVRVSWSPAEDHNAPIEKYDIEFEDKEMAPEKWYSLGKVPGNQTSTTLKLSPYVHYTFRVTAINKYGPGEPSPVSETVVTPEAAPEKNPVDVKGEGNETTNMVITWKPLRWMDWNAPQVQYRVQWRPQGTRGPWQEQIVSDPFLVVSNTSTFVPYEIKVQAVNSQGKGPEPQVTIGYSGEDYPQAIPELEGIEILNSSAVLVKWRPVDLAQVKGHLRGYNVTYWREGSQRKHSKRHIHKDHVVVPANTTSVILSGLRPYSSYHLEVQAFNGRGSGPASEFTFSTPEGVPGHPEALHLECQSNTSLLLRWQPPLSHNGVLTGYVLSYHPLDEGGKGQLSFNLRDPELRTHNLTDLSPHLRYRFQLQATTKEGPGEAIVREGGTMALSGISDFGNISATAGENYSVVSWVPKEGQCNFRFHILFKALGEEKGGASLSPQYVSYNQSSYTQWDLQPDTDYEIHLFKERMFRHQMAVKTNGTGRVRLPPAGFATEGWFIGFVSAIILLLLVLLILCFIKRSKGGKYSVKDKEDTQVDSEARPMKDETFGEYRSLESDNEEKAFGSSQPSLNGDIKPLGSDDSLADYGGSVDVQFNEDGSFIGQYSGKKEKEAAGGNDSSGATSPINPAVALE

Row | Sequence | Kd | Kd (cited from earlier work) [nM]
1 | AGCGCAGAAGGGGGTAGCTCGGTCGTGTTTTTGGGTTGTTTGGTGGGTCTTCTGCGCT [yly21-9-T] | 107 nM | 
2 | AGCGCAGATAGGGGGTAGCTCGGTCGTGTTTTTGGGTTGTTTGGTGGGTCTTCTGCGCT [yly21] | 1.3 nM and 0.9 nM and 5.1 nM | 
3 | AGGATAGGGGGTAGCTCGGTCGTGTTTTTGGGTTGTTTGGTGGGTCTT [yly13] |  | 369
4 | AGGATAGGGGGTAGCTCGGTCGTGTTTTTGGGTTGTTTGGTGGGTCTTCTG [yly12] | 21.6 nM and 111 nM | 3.5
5 | ATAGGGGGTAGCTCGGTCGTGTTTTTGGGTTGTTTGGTGGGTCTTCTG [yly14] |  | 92
6 | CAGAAGGGGGTAGCTCGGTCGTGTTTTTGGGTTGTTTGGTGGGTCTTCTG [yly20-5-T] | 112 nM | 
7 | CAGATAGAGGGTAGCTCGGTCGTGTTTTTGGGTTGTTTGGTGGGTCTTCTG [yly20-G8A] | 18.9 nM | 
8 | CAGATAGGGGGTAGCCCGGTCGTGTTTTCGGGTTGTTTGGTGGGTCTTCTG [yly20-T1629C] | 155 nM | 
9 | CAGATAGGGGGTAGCCCGGTCGTGTTTTTGGGTTGTTTGGTGGGTCTTCTG [yly20-T16C] | 44.2 nM | 
10 | CAGATAGGGGGTAGCTAGGTCGTGTTTTTGGGTTGTTTGGTGGGTCTTCTG [yly20-C17A] | 3.4 nM | 
11 | CAGATAGGGGGTAGCTCGGTCATGTTTTTGGGTTGTTTGGTGGGTCTTCTG [yly20-G22A] | 1.3 nM | 
12 | CAGATAGGGGGTAGCTCGGTCGTGATTTTGGGTTGTTTGGTGGGTCTTCTG [yly20-T25A] | 1.7 nM | 
13 | CAGATAGGGGGTAGCTCGGTCGTGTTTCCGGGTTGTTTGGTGGGTCTTCTG [yly20-T2829C] | 55.9 nM | 
14 | CAGATAGGGGGTAGCTCGGTCGTGTTTCTGGGTTGTTTGGTGGGTCTTCTG [yly20-T28C] | 5.3 nM | 
15 | CAGATAGGGGGTAGCTCGGTCGTGTTTTCGGGTTGTTTGGTGGGTCTTCTG [yly20-T29C] | 4.2 nM | 
16 | CAGATAGGGGGTAGCTCGGTCGTGTTTTTGGGCTGTTTGGTGGGTCTTCTG [yly20-T33C] | 9.5 nM | 
17 | CAGATAGGGGGTAGCTCGGTCGTGTTTTTGGGTTATTTGGTGGGTCTTCTG [yly20-G35A] | 53.1 nM | 
18 | CAGATAGGGGGTAGCTCGGTCGTGTTTTTGGGTTGTTTGGTGGGCCTTCTG [yly20-T45C] | 66.9 nM | 
19 | CAGATAGGGGGTAGCTCGGTCGTGTTTTTGGGTTGTTTGGTGGGTATTCTG [yly20-C46A] | 46.4 nM | 
20 | CAGATAGGGGGTAGCTCGGTCGTGTTTTTGGGTTGTTTGGTGGGTCTTCTG [yly20] | 2.3 nM and 1.9 nM and 7.6 nM | 
21 | CGGATAGGGGGTAGCTCGGTCGTGTTTTTGGGTTGTTTGGTGGGTCTTCTG [yly34] | 3.4 nM and 7.2 nM and 18.7 nM | 
22 | GGGATAGGGGGTAGCTCGGTCGTGTTTTTGGGTTGTTTGGTGGGTCTTCTG [yly33] | 6.2 nM and 12 nM and 41.4 nM | 
23 | TAGGGGGTAGCTCGGTCGTGTTTTTGGGTTGTTTGGTGGGTCTTCTG [yly16] |  | 330
24 | TTTGGGTTGTTTGGTGGGTCTTCTGCAGATAGGGGGTAGCTCGGTCGTGTT [yly20re] | 4.2 nM and 4.4 nM and 13 nM | 
